{"source": "patent US20180155432A1", "about": "(INSTITUT NATIONAL DE LA RECHERCHE SCIENTIFIQUE, published 2018)", "binders": {"B1": {"name": "biotin-labeled [Ahx0]hGal-7(129-135) (peptide)", "peptide": "LDSVRIF", "HELM": "PEPTIDE1{[O=C1N[C@H]2[C@H](CS[C@H]2CCCCC(=O)[*:2])N1].[O=C(CCCCCN[*:1])[*:2]].L.D.S.V.R.I.F.[am]}$$$$V2.0", "SMILES": "CC[C@H](C)[C@H](NC(=O)[C@H](CCCNC(=N)N)NC(=O)[C@@H](NC(=O)[C@H](CO)NC(=O)[C@H](CC(=O)O)NC(=O)[C@H](CC(C)C)NC(=O)CCCCCNC(=O)CCCC[C@@H]1SC[C@@H]2NC(=O)N[C@@H]21)C(C)C)C(=O)N[C@@H](Cc1ccccc1)C(N)=O"}}, "molecular_target": "T1, recombinant human galectin-1 (human, UniProt P09382 2-135)", "T1 construct": "Used as the galectin selectivity control; also called hGal-1; Gal-1", "T1 sequence (P09382 2-135 limits assumed)": "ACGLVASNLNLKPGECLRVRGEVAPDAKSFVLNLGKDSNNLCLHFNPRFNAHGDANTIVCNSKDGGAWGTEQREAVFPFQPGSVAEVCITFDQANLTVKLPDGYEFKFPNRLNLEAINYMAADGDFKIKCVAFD", "test": "solid phase fluorescent binding assay; galectin coated at 10 µg/ml, streptavidin R-phycoerythrin detection", "protocol": "Recombinant hGal-7 or hGal-1 (10 μg/mL) was coated overnight at 4° C. on black, flat bottom, 96-well polystyrene microplates (Ultident®, Montreal, QC, Canada). Thereafter, the plate was blocked with Reagent diluent (PBS-BSA 1%) for 1h, then incubated with unlabeled hGal-7₍₁₂₉₋₁₃₅₎ (cold) for 60 min and finally incubated with biotin-labeled [Ah⁰]hGal-7₍₁₂₉₋₁₃₅₎ for 2h. Lastly, Streptavidin R-phycoerythrin (1/500, Jackson Immunoresearch®, West Grove, Pa., USA) was applied to samples for 30 min. All incubations were performed at room temperature and the washes between incubations were done with 20 mM potassium phosphate buffer pH 7.1. The plate was read by a Tecan® Infinite M1000 PRO microplate reader at excitation and emission wavelengths of 488 nm and 670 nm, respectively."}
{"binder": "B1", "values": [{"measurement": "binding result", "value": "no binding"}]}
